The values below come from the RNAGym collection of RNA variant scans (doi:10.1093/molbev/msab373).

B1: Azoarcus group I ribozyme (parent)
chain: GUGCCUUGCGCCGGGAAACCACGCAAGGGAUGGUGUCAAAUUCGGCGAAACCUAAGCGCCCGCCCGGGCGUAUGGCAACGCCGAGCCAAGCUUCGGCGCCUGCGCCGAUGAAGGUGUAGAGACUAGACGGCACCCACCUAAGGCAAACGCUAUGGUGAAGGCAUAGUCCAGGGAGUGGCGAAAGUCACACAAACCGG

The variants in this data set derive from B1. As to the kind of experiment: reverse-splicing fitness (ratio to wild type); higher = more active; in vitro selection; Mg2+ level not given. An outline of the steps: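 An in vitro group I ribozyme library with randomized positions was T7-transcribed and gel-purified. In triplicate, 10 pmol RNA in EPPS pH 7.5 was reacted with 50 pmoles of a 30-nt RNA substrate for 1 h at 37 °C across several added MgCl2 levels (1–48 mM), then stopped with EDTA. Products were reverse transcribed from a substrate-complementary primer, PCR-amplified and sequenced (HiSeq 4000). Fitness is a variant's read proportion after selection over that before, normalised to wild type.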
For GUGCCUUGCGCCGGGAAACCACGCAAGGGAUGGUGUCAAAUUCGGCGAAACCUAAGCGCCCGCCCGGGCGUAUGGCAACGCCGAGCCAAGCUUCGGCGCCUGCGCCGAUGGAGGUGUAGGGACUAGACGGCACCCACCUAAGGCUAACGUUAUGGUGAAGGCAUAGUCCAGGGAGUGGCGAAAGUCACACAAACCGG, the reverse-splicing fitness is 0.19. Then GUGCCUUGCGCCGGGAAACCACGCAAGGGAUGGUGUCAAAUUCGGCGAAACCUAAGCGCCCGCCCGGGCGUAUGGCAACGCCGAGCCAAGCUUCGGCGCCUGCGCCGAUGGAGGUGUAGGGACUAGACGGCACCCACCUAAGGCUAACGCUAUGGUGAAGGCAUAGUCGAGGGAGUGGCGAAAGUCACACAAACCGG, with 0.33; and GUGCCUUGCGCCGGGAAACCACGCAAGGGAUGGUGUCAAAUUCGGCGAAACCUAAGCGCCCGCCCGGGCGUAUGGCAACGCCGAGCCAAGCUUCGGCGCCUGCGCCGAUGGAGGUGUAGGGACUAGACGGCACCCACCUAAGGCUAACGCUAUGGUGAAGGCAUAGUCAAGGGAGUGGCGAAAGUCACACAAACCGG, with 0.174; and GUGCCUUGCGCCGGGAAACCACGCAAGGGAUGGUGUCAAAUUCGGCGAAACCUAAGCGCCCGCCCGGGCGUAUGGCAACGCCGAGCCAAGCUUCGGCGCCUGCGCCGAUGGAGGUGUAGGGACUAGACGGCACCCACCUAAGGCUAACGCUAUGGUGAAGGCAUAGUCUAGGGAGUGGCGAAAGUCACACAAACCGG, with 0.232. For the variant GUGCCUUGCGCCGGGAAACCACGCAAGGGAUGGUGUCAAAUUCGGCGAAACCUAAGCGCCCGCCCGGGCGUAUGGCAACGCCGAGCCAAGCUUCGGCGCCUGCGCCGAUGGAGGUGUAGGGACUAGACGGCACCCACCUAAGGCUAACGUUAUGGUGAAGGCAUAGUCGAGGGAGAGGCGAAAGUCACACAAACCGG, the reverse-splicing fitness turned out to be 0.0574. Then GUGCCUUGCGCCGGGAAACCACGCAAGGGAUGGUGUCAAAUUCGGCGAAACCUAAGCGCCCGCCCGGGCGUAUGGCAACGCCGAGCCAAGCUUCGGCGCCUGCGCCGAUGGAGGUGUAGGGACUAGACGGCACCCACCUAAGGCUAACGUUAUGGUGAAGGCAUAGUCGAGGGAGCGGCGAAAGUCACACAAACCGG, with 0.0783; and GUGCCUUGCGCCGGGAAACCACGCAAGGGAUGGUGUCAAAUUCGGCGAAACCUAAGCGCCCGCCCGGGCGUAUGGCAACGCCGAGCCAAGCUUCGGCGCCUGCGCCGAUGGAGGUGUAGGGACUAGACGGCACCCACCUAAGGCUAACGUUAUGGUGAAGGCAUAGUCGAGGGAGGGGCGAAAGUCACACAAACCGG, with 0.00556.

Take GUGCCUUGCGCCGGGAAACCACGCAAGGGAUGGUGUCAAAUUCGGCGAAACCUAAGCGCCCGCCCGGGCGUAUGGCAACGCCGAGCCAAGCUUCGGCGCCUGCGCCGAUGGAGGUGUAGGGACUAGACGGCACCCACCUAAGGCUAACGCUAUGGUGAAGGCAUAGUCUAGGGAGAGGCGAAAGUCACACAAACCGG: the reverse-splicing fitness worked out at 0.0839. As for GUGCCUUGCGCCGGGAAACCACGCAAGGGAUGGUGUCAAAUUCGGCGAAACCUAAGCGCCCGCCCGGGCGUAUGGCAACGCCGAGCCAAGCUUCGGCGCCUGCGCCGAUGGAGGUGUAGGGACUAGACGGCACCCACCUAAGGCUAACGUUAUGGUGAAGGCAUAGUCUAGGGAGGGGCGAAAGUCACACAAACCGG, the figure is 0.00675. In the case of GUGCCUUGCGCCGGGAAACCACGCAAGGGAUGGUGUCAAAUUCGGCGAAACCUAAGCGCCCGCCCGGGCGUAUGGCAACGCCGAGCCAAGCUUCGGCGCCUGCGCCGAUGGAGGUGUAGGGACUAGACGGCACCCACCUAAGGCUAACGUUAUGGUGAAGGCAUAGUCUAGGGAGAGGCGAAAGUCACACAAACCGG, the reverse-splicing fitness amounted to 0.0647. Regarding GUGCCUUGCGCCGGGAAACCACGCAAGGGAUGGUGUCAAAUUCGGCGAAACCUAAGCGCCCGCCCGGGCGUAUGGCAACGCCGAGCCAAGCUUCGGCGCCUGCGCCGAUGGAGGUGUAGGGACUAGACGGCACCCACCUAAGGCUAACGUUAUGGUGAAGGCAUAGUCUAGGGAGCGGCGAAAGUCACACAAACCGG, the reverse-splicing fitness turned out to be 0.0675. Regarding GUGCCUUGCGCCGGGAAACCACGCAAGGGAUGGUGUCAAAUUCGGCGAAACCUAAGCGCCCGCCCGGGCGUAUGGCAACGCCGAGCCAAGCUUCGGCGCCUGCGCCGAUGGAGGUGUAGGGACUAGACGGCACCCACCUAAGGCUAACGUUAUGGUGAAGGCAUAGUCAAGGGAGAGGCGAAAGUCACACAAACCGG, the reverse-splicing fitness worked out at 0.0314. As to GUGCCUUGCGCCGGGAAACCACGCAAGGGAUGGUGUCAAAUUCGGCGAAACCUAAGCGCCCGCCCGGGCGUAUGGCAACGCCGAGCCAAGCUUCGGCGCCUGCGCCGAUGGAGGUGUAGGGACUAGACGGCACCCACCUAAGGCUAACGUUAUGGUGAAGGCAUAGUCAAGGGAGCGGCGAAAGUCACACAAACCGG, the reverse-splicing fitness amounted to 0.0426. Take GUGCCUUGCGCCGGGAAACCACGCAAGGGAUGGUGUCAAAUUCGGCGAAACCUAAGCGCCCGCCCGGGCGUAUGGCAACGCCGAGCCAAGCUUCGGCGCCUGCGCCGAUGGAGGUGUAGGGACUAGACGGCACCCACCUAAGGCUAACGUUAUGGUGAAGGCAUAGUCAAGGGAGGGGCGAAAGUCACACAAACCGG: the reverse-splicing fitness stood at 0.00532. Take GUGCCUUGCGCCGGGAAACCACGCAAGGGAUGGUGUCAAAUUCGGCGAAACCUAAGCGCCCGCCCGGGCGUAUGGCAACGCCGAGCCAAGCUUCGGCGCCUGCGCCGAUGGAGGUGUAGGGACUAGACGGCACCCACCUAAGGCUAACGCUAUGGUGAAGGCAUAGUCGAGGGAGAGGCGAAAGUCACACAAACCGG: the reverse-splicing fitness stood at 0.0761. As for GUGCCUUGCGCCGGGAAACCACGCAAGGGAUGGUGUCAAAUUCGGCGAAACCUAAGCGCCCGCCCGGGCGUAUGGCAACGCCGAGCCAAGCUUCGGCGCCUGCGCCGAUGGAGGUGUAGGGACUAGACGGCACCCACCUAAGGCUAACGCUAUGGUGAAGGCAUAGUCGAGGGAGGGGCGAAAGUCACACAAACCGG, the reverse-splicing fitness came out at 0.00712. GUGCCUUGCGCCGGGAAACCACGCAAGGGAUGGUGUCAAAUUCGGCGAAACCUAAGCGCCCGCCCGGGCGUAUGGCAACGCCGAGCCAAGCUUCGGCGCCUGCGCCGAUGGAGGUGUAGGGACUAGACGGCACCCACCUAAGGCUAACGCUAUGGUGAAGGCAUAGUCGAGGGAGCGGCGAAAGUCACACAAACCGG: the reverse-splicing fitness stood at 0.106. As for GUGCCUUGCGCCGGGAAACCACGCAAGGGAUGGUGUCAAAUUCGGCGAAACCUAAGCGCCCGCCCGGGCGUAUGGCAACGCCGAGCCAAGCUUCGGCGCCUGCGCCGAUGGAGGUGUAGGGACUAGACGGCACCCACCUAAGGCUAACGGUAUGGUGAAGGCAUAGUCCAGGGAGAGGCGAAAGUCACACAAACCGG, the figure is 0.0126.

Consider GUGCCUUGCGCCGGGAAACCACGCAAGGGAUGGUGUCAAAUUCGGCGAAACCUAAGCGCCCGCCCGGGCGUAUGGCAACGCCGAGCCAAGCUUCGGCGCCUGCGCCGAUGGAGGUGUAGGGACUAGACGGCACCCACCUAAGGCUAACGGUAUGGUGAAGGCAUAGUCCAGGGAGGGGCGAAAGUCACACAAACCGG, for which the reverse-splicing fitness was found to be 0.00354. For the variant GUGCCUUGCGCCGGGAAACCACGCAAGGGAUGGUGUCAAAUUCGGCGAAACCUAAGCGCCCGCCCGGGCGUAUGGCAACGCCGAGCCAAGCUUCGGCGCCUGCGCCGAUGGAGGUGUAGGGACUAGACGGCACCCACCUAAGGCUAACGGUAUGGUGAAGGCAUAGUCCAGGGAGCGGCGAAAGUCACACAAACCGG, the reverse-splicing fitness is 0.0217.

For the variant GUGCCUUGCGCCGGGAAACCACGCAAGGGAUGGUGUCAAAUUCGGCGAAACCUAAGCGCCCGCCCGGGCGUAUGGCAACGCCGAGCCAAGCUUCGGCGCCUGCGCCGAUGGAGGUGUAGGGACUAGACGGCACCCACCUAAGGCUAACGCUAUGGUGAAGGCAUAGUCAAGGGAGAGGCGAAAGUCACACAAACCGG, the reverse-splicing fitness is 0.0397. For GUGCCUUGCGCCGGGAAACCACGCAAGGGAUGGUGUCAAAUUCGGCGAAACCUAAGCGCCCGCCCGGGCGUAUGGCAACGCCGAGCCAAGCUUCGGCGCCUGCGCCGAUGGAGGUGUAGGGACUAGACGGCACCCACCUAAGGCUAACGCUAUGGUGAAGGCAUAGUCAAGGGAGCGGCGAAAGUCACACAAACCGG, the reverse-splicing fitness was determined as 0.0642. As to GUGCCUUGCGCCGGGAAACCACGCAAGGGAUGGUGUCAAAUUCGGCGAAACCUAAGCGCCCGCCCGGGCGUAUGGCAACGCCGAGCCAAGCUUCGGCGCCUGCGCCGAUGGAGGUGUAGGGACUAGACGGCACCCACCUAAGGCUAACGCUAUGGUGAAGGCAUAGUCAAGGGAGGGGCGAAAGUCACACAAACCGG, the reverse-splicing fitness was determined as 0.00646. Then GUGCCUUGCGCCGGGAAACCACGCAAGGGAUGGUGUCAAAUUCGGCGAAACCUAAGCGCCCGCCCGGGCGUAUGGCAACGCCGAGCCAAGCUUCGGCGCCUGCGCCGAUGGAGGUGUAGGGACUAGACGGCACCCACCUAAGGCUAACGUUAUGGUGAAGGCAUAGUCCAGGGAGCGGCGAAAGUCACACAAACCGG, with 0.0782. Regarding GUGCCUUGCGCCGGGAAACCACGCAAGGGAUGGUGUCAAAUUCGGCGAAACCUAAGCGCCCGCCCGGGCGUAUGGCAACGCCGAGCCAAGCUUCGGCGCCUGCGCCGAUGGAGGUGUAGGGACUAGACGGCACCCACCUAAGGCUAACGUUAUGGUGAAGGCAUAGUCCAGGGAGGGGCGAAAGUCACACAAACCGG, the reverse-splicing fitness came out at 0.00788. Then GUGCCUUGCGCCGGGAAACCACGCAAGGGAUGGUGUCAAAUUCGGCGAAACCUAAGCGCCCGCCCGGGCGUAUGGCAACGCCGAGCCAAGCUUCGGCGCCUGCGCCGAUGGAGGUGUAGGGACUAGACGGCACCCACCUAAGGCUAACGUUAUGGUGAAGGCAUAGUCCAGGGAGAGGCGAAAGUCACACAAACCGG, with 0.0608. In the case of GUGCCUUGCGCCGGGAAACCACGCAAGGGAUGGUGUCAAAUUCGGCGAAACCUAAGCGCCCGCCCGGGCGUAUGGCAACGCCGAGCCAAGCUUCGGCGCCUGCGCCGAUGGAGGUGUAGGGACUAGACGGCACCCACCUAAGGCUAACGUUAUGGUGAAGGCAUAGUCGAGGGAGUGGCGAAAGUCACACAAACCGG, the reverse-splicing fitness came out at 0.206. For the variant GUGCCUUGCGCCGGGAAACCACGCAAGGGAUGGUGUCAAAUUCGGCGAAACCUAAGCGCCCGCCCGGGCGUAUGGCAACGCCGAGCCAAGCUUCGGCGCCUGCGCCGAUGGAGGUGUAGGGACUAGACGGCACCCACCUAAGGCUAACGUUAUGGUGAAGGCAUAGUCUAGGGAGUGGCGAAAGUCACACAAACCGG, the reverse-splicing fitness amounted to 0.157. On to GUGCCUUGCGCCGGGAAACCACGCAAGGGAUGGUGUCAAAUUCGGCGAAACCUAAGCGCCCGCCCGGGCGUAUGGCAACGCCGAGCCAAGCUUCGGCGCCUGCGCCGAUGGAGGUGUAGGGACUAGACGGCACCCACCUAAGGCUAACGUUAUGGUGAAGGCAUAGUCAAGGGAGUGGCGAAAGUCACACAAACCGG, for which the reverse-splicing fitness was 0.114. As for GUGCCUUGCGCCGGGAAACCACGCAAGGGAUGGUGUCAAAUUCGGCGAAACCUAAGCGCCCGCCCGGGCGUAUGGCAACGCCGAGCCAAGCUUCGGCGCCUGCGCCGAUGGAGGUGUAGGGACUAGACGGCACCCACCUAAGGCUAACGGUAUGGUGAAGGCAUAGUCUAGGGAGGGGCGAAAGUCACACAAACCGG, the figure is 0.00442.
